Assay results reported in the supplement of paper PMC5998384.

Tests used:
HeLa Kyoto [1] = test: solubility change mitosis vs G1/S (difference of NP-40 vs SDS log2 ratios) (log2 ratio difference); higher = more soluble in mitosis
HeLa Kyoto [2] = test: thermal stability score vs G1/S (z-score of summed log2 fold changes over temperatures); higher = more thermally stable than in G1/S
HeLa Kyoto [3] = test: solubility in G1/S (NP-40 vs SDS abundance) (log2 ratio); higher = more soluble; details: cell cycle stage: G1/S
HeLa Kyoto [4] = test: melting temperature (median over replicates), in situ; higher = more thermally stable
[5] = cell cycle stage: early G1 (4.5 h after nocodazole release)
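For melting temperature (median over replicates), in situ in this document: HeLa Kyoto cells synchronized by double thymidine or nocodazole block, proteins quantified by TMT10plex mass spectrometry, three independent biological replicates.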
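For solubility change mitosis vs G1/S (difference of NP-40 vs SDS log2 ratios) in this document: synchronized HeLa Kyoto cells (double thymidine block for G1/S, nocodazole release for mitosis), protein amounts in NP-40 versus SDS lysates quantified by mass spectrometry, three biological replicates.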
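For solubility in G1/S (NP-40 vs SDS abundance) in this document: HeLa Kyoto cells arrested at G1/S by double thymidine block, proteins quantified by TMT10plex mass spectrometry in mild NP-40 versus SDS extracts, three biological replicates.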
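For thermal stability score vs G1/S (z-score of summed log2 fold changes over temperatures) in this document: synchronized HeLa Kyoto cells, proteins quantified by TMT10plex mass spectrometry, three biological replicates, mitosis taken 0.5 h after nocodazole release, G1/S directly after double thymidine block.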

| Substance | solubility change mitosis (log2) (HeLa Kyoto [1]) | thermal stability score (HeLa Kyoto [2]; [5]) | thermal stability score (HeLa Kyoto [2]; cell cycle stage: mitosis) | solubility in G1/S (log2) (HeLa Kyoto [3]) | melting temperature (HeLa Kyoto [4]; cell cycle stage: G1/S) | melting temperature (HeLa Kyoto [4]; cell cycle stage: mitosis) |
| --- | --- | --- | --- | --- | --- | --- |
| MWRCGGRQGLCVLRRLSGGHAHHRAWRWNSNRACERALQYKLGDKIHGFTVNQVTSVPELFLTAVKLTHDDTGARYLHLAREDTNNLFSVQFRTTPMDSTGVPHILEHTVLCGSQKYPCRDPFFKMLNRSLSTFMNAFTASDYTLYPFSTQNPKDFQNLLSVYLDATFFPCLRELDFWQEGWRLEHENPSDPQTPLVFKGVVFNEMKGAFTDNERIFSQHLQNRLLPDHTYSVVSGGDPLCIPELTWEQLKQFHATHYHPSNARFFTYGNFPLEQHLKQIHEEALSKFQKIEPSTVVPAQTPWDKPREFQITCGPDSFATDPSKQTTISVSFLLPDITDTFEAFTLSLLSSLLTSGPNSPFYKALIESGLGTDFSPDVGYNGYTREAYFSVGLQGIAEKDIETVRSLIDRTIDEVVEKGFEDDRIEALLHKIEIQMKHQSTSFGLMLTSYIASCWNHDGDPVELLKLGNQLAKFRQCLQENPKFLQEKVKQYFKNNQHKLTLSMRPDDKYHEKQAQVEATKLKQKVEALSPGDRQQIYEKGLELRSQQSKPQDASCLPALKVSDIEPTIPVTELDVVLTAGDIPVQYCAQPTNGMVYFRAFSSLNTLPEELRPYVPLFCSVLTKLGCGLLDYREQAQQIELKTGGMSASPHVLPDDSHMDTYEQGVLFSSLCLDRNLPDMMQLWSEIFNNPCFEEEEHFKVLVKMTAQELANGIPDSGHLYASIRAGRTLTPAGDLQETFSGMDQVRLMKRIAEMTDIKPILRKLPRIKKHLLNGDNMRCSVNATPQQMPQTEKAVEDFLRSIGRSKKERRPVRPHTVEKPVPSSSGGDAHVPHGSQVIRKLVMEPTFKPWQMKTHFLMPFPVNYVGECIRTVPYTDPDHASLKILARLMTAKFLHTEIREKGGAYGGGAKLSHNGIFTLYSYRDPNTIETLQSFGKAVDWAKSGKFTQQDIDEAKLSVFSTVDAPVAPSDKGMDHFLYGLSDEMKQAHREQLFAVSHDKLLAVSDRYLGTGKSTHGLAILGPENPKIAKDPSWIIQ [PITRM1] | -0.084 | 0.343 | -0.944 | 0.143 | 51.4 °C | 50.9 °C |
| MDGKQGGMDGSKPAGPRDFPGIRLLSNPLMGDAVSDWSPMHEAAIHGHQLSLRNLISQGWAVNIITADHVSPLHEACLGGHLSCVKILLKHGAQVNGVTADWHTPLFNACVSGSWDCVNLLLQHGASVQPESDLASPIHEAARRGHVECVNSLIAYGGNIDHKISHLGTPLYLACENQQRACVKKLLESGADVNQGKGQDSPLHAVARTASEELACLLMDFGADTQAKNAEGKRPVELVPPESPLAQLFLEREGPPSLMQLCRLRIRKCFGIQQHHKITKLVLPEDLKQFLLHL [ASB9] | -0.182 | -0.645 | -1.33 | 0.762 | 55 °C | 54.2 °C |
| MAEFTSYKETASSRHLRFKLQSLSRRLDELEEATKNLQKAEDELLDLQDKVIQAEGSNSSMLAEIEVLRQRVLRIEGKDEEIKRAEDLCRLMKEKLEEEENLTRELKSEIERLQKRMAELEKLEEAFSRSKNDCTQLCLSLNEERNLTKKISSELEMLRVKVKELESSEDRLDKTEQSLASELEKLKSLTLSFVSERKYLNEKEKENEKLIKELTQKLEQNKKMNRDYTRNASNLERNDLRIEDGISSTLPSKESRRKGGLDYLKQVENETRNKSENEKNRNQEDNKVKDLNQEIEKLKTQIKHFESLEEELKKMKSKNNDLQDNYLSEQNKNKLLASQLEEIKLQIKKQKELENGEVEGEDAFLSSKGRHERTKFRGHGSEASVSKHTARELSPQHKRERLRNREFALNNENYSLSNRQVSSPSFTNRRAAKASHMGVSTDSGTQETKKTEDRFVPGSSQSEGKKSREQPSVLSRYPPAAQEHSKAWKGTSKPGTESGLKGKVEKTTRTFSDTTHGSVPSDPLGRADKASDTSSETVFGKRGHVLGNGSQVTQAANSGCSKAIGALASSRRSSSEGLSKGKKAANGLEADNSCPNSKAPVLSKYPYSCRSQENILQGFSTSHKEGVNQPAAVVMEDSSPHEALRCRVIKSSGREKPDSDDDLDIASLVTAKLVNTTITPEPEPKPQPNSREKAKTRGAPRTSLFENDKDAGMENESVKSVRASTNTMELPDTNGAGVKSQRPFSPREALRSRAIIKPVIVDKDVKKIMGGSGTETTLEKQKPVSKPGPNKVTSSITIYPSDSSSPRAAPGEALRERHTSTSNIQVGLAELTSVSNHVSSPFELSIHKHDITLQLAEAERMADGPLKDRPETVVSRSSIIIKPSDPVERNSHAPPAETIRWKSHSAPSEVGFSDARHVTVRNAWKSRRDLKSLEDPPTRIGKNVESTNSNAYTQRSSTDFSELEQPRSCLFEQGTRRVGPSSGDAPEPSSRRTQSSLTVSEVLTRRNRVGDTITVAAWNHSASMEEEGEDCTLSVYRQLHNSLDPSELPGKQGLPESGRVRAEERLRPTRPCAEEN [LUZP1] | 0.14 | 0.392 | 0.722 | -0.781 | 51.8 °C | 52.3 °C |
| MKYILVTGGVISGIGKGIIASSIGTILKSCGLRVTAIKIDPYINIDAGTFSPYEHGEVFVLNDGGEVDLDLGNYERFLDINLYKDNNITTGKIYQHVINKERRGDYLGKTVQVVPHITDAVQEWVMNQAKVPVDGNKEEPQICVIELGGTIGDIEGMPFVEAFRQFQFKAKRENFCNIHVSLVPQLSATGEQKTKPTQNSVRALRGLGLSPDLIVCRSSTPIEMAVKEKISMFCHVNPEQVICIHDVSSTYRVPVLLEEQSIVKYFKERLHLPIGDSASNLLFKWRNMADRYERLQKICSIALVGKYTKLRDCYASVFKALEHSALAINHKLNLMYIDSIDLEKITETEDPVKFHEAWQKLCKADGILVPGGFGIRGTLGKLQAISWARTKKIPFLGVCLGMQLAVIEFARNCLNLKDADSTEFRPNAPVPLVIDMPEHNPGNLGGTMRLGIRRTVFKTENSILRKLYGDVPFIEERHRHRFEVNPNLIKQFEQNDLSFVGQDVDGDRMEIIELANHPYFVGVQFHPEFSSRPMKPSPPYLGLLLAATGNLNAYLQQGCKLSSSDRYSDASDDSFSEPRIAELEIS [CTPS2] | -0.0719 | -2.15 | -1.98 | 0.0287 | 57.1 °C | 57.2 °C |
| MEVPPRLSHVPPPLFPSAPATLASRSLSHWRPRPPRQLAPLLPSLAPSSARQGARRAQRHVTAQQPSRLAGGAAIKGGRRRRPDLFRRHFKSSSIQRSAAAAAATRTARQHPPADSSVTMEDMNEYSNIEEFAEGSKINASKNQQDDGKMFIGGLSWDTSKKDLTEYLSRFGEVVDCTIKTDPVTGRSRGFGFVLFKDAASVDKVLELKEHKLDGKLIDPKRAKALKGKEPPKKVFVGGLSPDTSEEQIKEYFGAFGEIENIELPMDTKTNERRGFCFITYTDEEPVKKLLESRYHQIGSGKCEIKVAQPKEVYRQQQQQQKGGRGAAAGGRGGTRGRGRGQGQNWNQGFNNYYDQGYGNYNSAYGGDQNYSGYGGYDYTGYNYGNYGYGQGYADYSGQQSTYGKASRGGGNHQNNYQPY [HNRNPDL] | 0.352 | 0.0293 | -2.51 | -0.122 | 54.4 °C | 53.6 °C |
| DIP2B | -0.12 | -1.32 | -2.08 | -0.125 | 53.4 °C | 53.1 °C |
| MATAAAAAAVMAPPGCPGSCPNFAVVCSFLERYGPLLDLPELPFPELERVLQAPPPDVGNGEVPKELVELHLKLMRKIGKSVTADRWEKYLIKICQEFNSTWAWEMEKKGYLEMSVECKLALLKYLCECQFDDNLKFKNIINEEDADTMRLQPIGRDKDGLMYWYQLDQDHNVRMYIEEQDDQDGSSWKCIVRNRNELAETLALLKAQIDPVLLKNSSQQDNSSRESPSLEDEETKKEEETPKQEEQKESEKMKSEEQPMDLENRSTANVLEETTVKKEKEDEKELVKLPVIVKLEKPLPENEEKKIIKEESDSFKENVKPIKVEVKECRADPKDTKSSMEKPVAQEPERIEFGGNIKSSHEITEKSTEETEKLKNDQQAKIPLKKREIKLSDDFDSPVKGPLCKSVTPTKEFLKDEIKQEEETCKRISTITALGHEGKQLVNGEVSDERVAPNFKTEPIETKFYETKEESYSPSKDRNIITEGNGTESLNSVITSMKTGELEKETAPLRKDADSSISVLEIHSQKAQIEEPDPPEMETSLDSSEMAKDLSSKTALSSTESCTMKGEEKSPKTKKDKRPPILECLEKLEKSKKTFLDKDAQRLSPIPEEVPKSTLESEKPGSPEAAETSPPSNIIDHCEKLASEKEVVECQSTSTVGGQSVKKVDLETLKEDSEFTKVEMDNLDNAQTSGIEEPSETKGSMQKSKFKYKLVPEEETTASENTEITSERQKEGIKLTIRISSRKKKPDSPPKVLEPENKQEKTEKEEEKTNVGRTLRRSPRISRPTAKVAEIRDQKADKKRGEGEDEVEEESTALQKTDKKEILKKSEKDTNSKVSKVKPKGKVRWTGSRTRGRWKYSSNDESEGSGSEKSSAASEEEEEKESEEAILADDDEPCKKCGLPNHPELILLCDSCDSGYHTACLRPPLMIIPDGEWFCPPCQHKLLCEKLEEQLQDLDVALKKKERAERRKERLVYVGISIENIIPPQEPDFSEDQEEKKKDSKKSKANLLERRSTRTRKCISYRFDEFDEAIDEAIEDDIKEADGGGVGRGKDISTITGHRGKDISTILDEERKENKRPQRAAAARRKKRRRLNDLDSDSNLDEEESEDEFKISDGSQDEFVVSDENPDESEEDPPSNDDSDTDFCSRRLRRHPSRPMRQSRRLRRKTPKKKYSDDDEEEESEENSRDSESDFSDDFSDDFVETRRRRSRRNQKRQINYKEDSESDGSQKSLRRGKEIRRVHKRRLSSSESEESYLSKNSEDDELAKESKRSVRKRGRSTDEYSEADEEEEEEEGKPSRKRLHRIETDEEESCDNAHGDANQPARDSQPRVLPSEQESTKKPYRIESDEEEDFENVGKVGSPLDYSLVDLPSTNGQSPGKAIENLIGKPTEKSQTPKDNSTASASLASNGTSGGQEAGAPEEEEDELLRVTDLVDYVCNSEQL [RSF1] | 0.0168 | 0.31 | 2.21 | -1.03 | 49.1 °C | 51.7 °C |
| MLQQVPENINFPAEEEKILEFWTEFNCFQECLKQSKHKPKFTFYDGPPFATGLPHYGHILAGTIKDIVTRYAHQSGFHVDRRFGWDCHGLPVEYEIDKTLGIRGPEDVAKMGITEYNNQCRAIVMRYSAEWKSTVSRLGRWIDFDNDYKTLYPQFMESVWWVFKQLYDKGLVYRGVKVMPFSTACNTPLSNFESHQNYKDVQDPSVFVTFPLEEDETVSLVAWTTTPWTLPSNLAVCVNPEMQYVKIKDVARGRLLILMEARLSALYKLESDYEILERFPGAYLKGKKYRPLFDYFLKCKENGAFTVLVDNYVKEEEGTGVVHQAPYFGAEDYRVCMDFNIIRKDSLPVCPVDASGCFTTEVTDFAGQYVKDADKSIIRTLKEQGRLLVATTFTHSYPFCWRSDTPLIYKAVPSWFVRVENMVDQLLRNNDLCYWVPELVREKRFGNWLKDARDWTISRNRYWGTPIPLWVSDDFEEVVCIGSVAELEELSGAKISDLHRESVDHLTIPSRCGKGSLHRISEVFDCWFESGSMPYAQVHYPFENKREFEDAFPADFIAEGIDQTRGWFYTLLVLATALFGQPPFKNVIVNGLVLASDGQKMSKRKKNYPDPVSIIQKYGADALRLYLINSPVVRAENLRFKEEGVRDVLKDVLLPWYNAYRFLIQNVLRLQKEEEIEFLYNENTVRESPNITDRWILSFMQSLIGFFETEMAAYRLYTVVPRLVKFVDILTNWYVRMNRRRLKGENGMEDCVMALETLFSVLLSLCRLMAPYTPFLTELMYQNLKVLIDPVSVQDKDTLSIHYLMLPRVREELIDKKTESAVSQMQSVIELGRVIRDRKTIPIKYPLKEIVVIHQDPEALKDIKSLEKYIIEELNVRKVTLSTDKNKYGIRLRAEPDHMVLGKRLKGAFKAVMTSIKQLSSEELEQFQKTGTIVVEGHELHDEDIRLMYTFDQATGGTAQFEAHSDAQALVLLDVTPDQSMVDEGMAREVINRIQKLRKKCNLVPTDEITVYYKAKSEGTYLNSVIESHTEFIFTTIKAPLKPYPVSPSDKVLIQEKTQLKGSELEITLTRGSSLPGPACAYVNLNICANGSEQGGVLLLENPKGDNRLDLLKLKSVVTSIFGVKNTELAVFHDETEIQNQTDLLSLSGKTLCVTAGSAPSLINSSSTLLCQYINLQLLNAKPQECLMGTVGTLLLENPLGQNGLTHQGLLYEAAKVFGLRSRKLKLFLNETQTQEITEDIPVKTLNMKTVYVSVLPTTADF [IARS] | -0.178 | 0.0148 | 2.81 | -0.225 | 48.8 °C | 49.2 °C |
